Test results: publication PMC3602593

The substances below were run against DARPin H10-2-G3 (assay: SPR; G3 DARPin amine-coupled (about 1,200 RU) on a GLC chip, ProteOn XPR36; HER2 constructs injected as analyte (One-Shot Kinetics, 30 uL/min, 120 s); 25°C; HBS-EBP+ (10 mM HEPES, 150 mM NaCl, 3 mM EDTA, 0.1% BSA, 0.05% Tween 20); global fit to a 1:1 model, KD = kd/ka).

Substance | Kd | koff | kon
HER2 extracellular domain, residues 1-623, Leu 525→Ala (from UniProt P04626 23-645) (domain or fragment) | 265 nM | 0.0393 s⁻¹ | 149000 M⁻¹ s⁻¹
HER2 extracellular domain, residues 1-623, Phe 555→Ala (from UniProt P04626 23-645) (domain or fragment) | 210 nM | 0.0384 s⁻¹ | 184000 M⁻¹ s⁻¹
HER2 extracellular domain, residues 1-623, Val 552→Ala (from UniProt P04626 23-645) (domain or fragment) | 380 nM | 0.064 s⁻¹ | 169000 M⁻¹ s⁻¹

These reach a lower Kd. Values come first.

Kd | koff | kon | Substance
12.8 nM | 0.0035 s⁻¹ | 285000 M⁻¹ s⁻¹ | HER2 extracellular domain, residues 1-623, Ser 551→Ala (from UniProt P04626 23-645) (domain or fragment)
3.3 nM | 0.00107 s⁻¹ | 322000 M⁻¹ s⁻¹ | human epidermal growth factor receptor 2 (HER2) extracellular domain, residues 1-623, wild type (from UniProt P04626 23-645) (domain or fragment)
